Measured values published in EP4545563A1 (Foreseen Technology (Beijing) Co., Ltd., dated 2024).
Residue numbers refer to the chain shown, from its start.

Key:
[1] = biological target: T1, ITGA2-His (human, UniProt P17301 30-1132, limits assumed); assay: ELISA, plate coated with 2 ug/mL ITGA2-His, anti-human IgG-Fc-HRP detection
T1 construct: also called ITGA2 protein; not shown: His tag
T1 sequence (looked up): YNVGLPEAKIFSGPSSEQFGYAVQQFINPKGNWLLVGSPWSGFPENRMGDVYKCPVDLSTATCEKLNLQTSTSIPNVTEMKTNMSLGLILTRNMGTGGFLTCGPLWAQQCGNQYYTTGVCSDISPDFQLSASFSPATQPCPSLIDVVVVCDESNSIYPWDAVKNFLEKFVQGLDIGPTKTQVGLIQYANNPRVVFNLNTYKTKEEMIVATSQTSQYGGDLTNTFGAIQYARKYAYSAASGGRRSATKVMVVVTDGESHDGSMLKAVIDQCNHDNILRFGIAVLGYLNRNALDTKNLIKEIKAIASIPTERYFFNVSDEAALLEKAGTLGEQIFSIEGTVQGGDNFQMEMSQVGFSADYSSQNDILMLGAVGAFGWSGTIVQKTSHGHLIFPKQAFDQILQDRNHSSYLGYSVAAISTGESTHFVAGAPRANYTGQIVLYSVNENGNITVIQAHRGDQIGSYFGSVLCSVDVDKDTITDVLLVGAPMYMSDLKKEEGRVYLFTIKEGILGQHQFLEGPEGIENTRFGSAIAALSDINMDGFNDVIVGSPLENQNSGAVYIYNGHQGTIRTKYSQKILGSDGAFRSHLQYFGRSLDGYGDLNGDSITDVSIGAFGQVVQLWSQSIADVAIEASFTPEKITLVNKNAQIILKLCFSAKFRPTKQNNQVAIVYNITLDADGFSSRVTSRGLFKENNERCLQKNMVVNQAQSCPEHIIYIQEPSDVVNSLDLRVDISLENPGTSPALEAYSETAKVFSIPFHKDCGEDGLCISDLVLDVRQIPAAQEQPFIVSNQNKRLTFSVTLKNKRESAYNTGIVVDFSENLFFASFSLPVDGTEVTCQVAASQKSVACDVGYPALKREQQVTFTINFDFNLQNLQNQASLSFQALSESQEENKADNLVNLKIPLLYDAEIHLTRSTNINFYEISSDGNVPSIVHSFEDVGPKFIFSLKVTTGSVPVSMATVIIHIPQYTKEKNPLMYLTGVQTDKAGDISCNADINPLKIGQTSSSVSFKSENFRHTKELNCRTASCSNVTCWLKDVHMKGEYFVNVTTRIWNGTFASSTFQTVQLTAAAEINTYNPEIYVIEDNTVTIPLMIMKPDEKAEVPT

[2] = biological target: T2, ITGA2 protein on the surface of human tumor cells (HuCCT1, A431) (human, UniProt P17301 30-1181); assay: flow cytometry on HuCCT1 cells, goat anti-human IgG (H+L) secondary antibody
T2 construct: whole, on cells; Endogenously expressed on the cell lines; the cell line of each entry is named under assay or readout; also called Integrin alpha-2; ITGA2-positive HuCCT1 cells
T2 sequence (looked up): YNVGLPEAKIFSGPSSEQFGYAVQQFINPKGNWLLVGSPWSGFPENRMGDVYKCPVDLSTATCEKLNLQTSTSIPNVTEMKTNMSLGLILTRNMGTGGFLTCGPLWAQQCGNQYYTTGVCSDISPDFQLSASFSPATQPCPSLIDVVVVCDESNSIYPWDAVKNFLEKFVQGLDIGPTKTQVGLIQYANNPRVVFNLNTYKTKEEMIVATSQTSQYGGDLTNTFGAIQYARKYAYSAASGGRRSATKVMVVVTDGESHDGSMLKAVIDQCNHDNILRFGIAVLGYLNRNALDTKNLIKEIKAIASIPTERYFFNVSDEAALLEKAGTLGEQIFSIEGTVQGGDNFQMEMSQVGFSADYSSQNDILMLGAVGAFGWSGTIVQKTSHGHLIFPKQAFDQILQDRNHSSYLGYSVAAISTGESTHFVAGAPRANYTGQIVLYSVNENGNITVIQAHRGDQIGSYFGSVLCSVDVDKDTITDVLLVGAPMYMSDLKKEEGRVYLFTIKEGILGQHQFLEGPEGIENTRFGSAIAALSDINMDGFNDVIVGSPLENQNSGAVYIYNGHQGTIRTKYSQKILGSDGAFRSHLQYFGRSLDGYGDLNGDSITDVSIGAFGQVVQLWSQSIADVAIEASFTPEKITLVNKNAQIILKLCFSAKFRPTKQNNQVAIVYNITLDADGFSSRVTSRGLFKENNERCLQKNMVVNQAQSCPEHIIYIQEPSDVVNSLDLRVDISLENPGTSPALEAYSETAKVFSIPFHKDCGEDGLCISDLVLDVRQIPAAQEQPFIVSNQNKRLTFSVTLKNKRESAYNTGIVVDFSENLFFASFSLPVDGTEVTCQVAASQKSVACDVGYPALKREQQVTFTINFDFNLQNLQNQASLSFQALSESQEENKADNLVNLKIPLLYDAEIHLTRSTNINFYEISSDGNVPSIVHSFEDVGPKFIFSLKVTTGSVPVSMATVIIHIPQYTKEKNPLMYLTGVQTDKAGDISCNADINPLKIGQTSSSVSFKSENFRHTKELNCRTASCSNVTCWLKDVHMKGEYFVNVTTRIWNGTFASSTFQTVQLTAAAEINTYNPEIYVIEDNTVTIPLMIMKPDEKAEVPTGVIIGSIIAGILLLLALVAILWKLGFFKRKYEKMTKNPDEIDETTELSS

[3] = biological target: T2, ITGA2 protein on the surface of human …; assay: cell-based or functional assay

B1: Humanized antibody FS002-C11 (antibody, human IgG1, kappa, V domains shown)
VH: RLQLQESGPRLVKPSETLSLTCSVSGGSISSRNHYWAWIRQPPGKGLEWIGYIYYSGSTYYNPSLKSRVTISVDTSKNQFSLKLSSVTAADTAVYYCARVGLLLRDFDYWGQGTLVTVSS
VL: DIQMIQSPSSVSASVGDRVTITCRASQGISNSLAWYQHKPGTTPKLLIYAASSLQGGVPSRFSGSSSETDFTLTISSLQPEDFATYYCQQANSFPITFGQGTRLDIKR
notes: IgG1 heavy chain, kappa light chain
EC50 [1]: 0.035 nM | EC50 [2]: 0.747 nM

B2: FS002-A36-vc-MMAE (antibody, human IgG1, kappa, V domains shown)
VH: QVQLQESGPGLVKPSQTLSLTCTVSGGSISSGGYYWSWIRQHPGKGLEWIGYIYYSGSTYYNPSLKSRVTISVDTSKNQFSLKLSSVTAADTAVYYCARVRLLGGGFDIWGQGTTVTVSS
VL: EIVLTQSPATLSLSPGERATLSCRASQSVSTYLAWYQQKPGQAPRLLIYDTSIRATGIPARFSGSGSGTDFTLTISSLEPEDFAVYYCQQRSNWPLTFGGGTKVEIKR
modifications: vc-MMAE (mc-vc-PAB-MMAE) linker-payload conjugated after TCEP reduction, DAR 3.8 for the whole antibody; sites not stated
A431 cell killing IC50 [3]: 0.02 nM | HuCC-T1 cell killing IC50 [3]: 0.08 nM

B3: Humanized antibody FS002-A66 (antibody, human IgG1, kappa, V domains shown)
VH: EVQLVESGGGVVQPGRSLRLSCAASGFTFSSYAMHWVRQAPGKGLEWVAVISYDGSNKYYVDSVKGRFTISRDNSKNTLYLQMNSLRAEDTAVYYCARDRITYLDYYYYGMDVWGQGTTVTVSS
VL: B2 VL with T10I, T31E, T51I, I53N, G68E, S92R, N93T, G100P, E105D
notes: as for B1
EC50 [1]: 0.031 nM | EC50 [2]: 2.35 nM

B4: Humanized antibody FS002-A5 (antibody, human IgG1, kappa, V domains shown)
VH: QVQLQDSGPGLVKPSQTLSLTCTVSGGSISSGGYYWSWIRQHPGKGLEWIGYIYYSGSTYYNPSLKSRVTISVDTSKNQFSLKLSSVTAADTAVYYCARVPVPLVGAFDIWGQGTMVTVSS
VL: B2 VL with T31S, Y32N, A34G, R45S, D50G, T51A, I53N, S92D, N93T
notes: as for B1
EC50 [1]: 0.032 nM | EC50 [2]: 1.27 nM

B5: FS002-A15-vc-MMAE (antibody, human IgG1, kappa, V domains shown)
VH: RLQLQESGPGLVKPSQTLSLTCTVSGGSISSGGYYWSWIRQHPGKGLEWIGYIYYSGSTYYNPSLKSRVTISVDTSKNQFSLKLSSVTAADTAVYYCARATIYGYFDYWGQGTLVTVSS
VL: EIVLTQSPATLPLSPGERATLSCRASQSVGFYLAWYQQKPGQPPRLLFYDASKRATGIPARFSASGSGTDFTLTISGLEPEDFAVYYCQHRISWPLTFGQGTKVEVKR
modifications: vc-MMAE (mc-vc-PAB-MMAE) linker-payload conjugated after TCEP reduction, DAR 2.9 for the whole antibody; sites not stated
A431 cell killing IC50 [3]: 0.2 nM | HuCC-T1 cell killing IC50 [3]: 0.2 nM

B6: Humanized antibody FS002-A72 (antibody, human IgG1, kappa, V domains shown)
VH: QVQLVDSGGGLVQPGGSLRLSCVASGFAFSNYEMNWVRQAPGKGLEWVSYISSSSSYTNYADSVKGRFTISRDNAKNSLYLQMNSLRAEDTAVYYCARAQVRDAFDIWGQGTTVTVSS
VL: IVMTQSPVTLSVSPGDSATLSCRASQSVDKNLAWYQQKTGQAPRLLIYGAATRATGIPARFSGSGSGTEFTLTISSLRSEDFAVYYCQQYRNWPWTFGLGTKVEIKR
notes: as for B1
EC50 [1]: 0.259 nM | EC50 [2]: 17.2 nM

B7: FS002-A1-vc-MMAE (antibody, V domains shown)
VH: QVQLVQSGAEVKKPGASVKVSCKASGYTFTSYYMHWVRQAPGQGLEWMGIINPSGGSTSYAQKFQGRVTMTRDTSTSTVYMELSSLRSEDTAVYYCARDISGSYQTDAFDIWGQGTMVTVSS
VL: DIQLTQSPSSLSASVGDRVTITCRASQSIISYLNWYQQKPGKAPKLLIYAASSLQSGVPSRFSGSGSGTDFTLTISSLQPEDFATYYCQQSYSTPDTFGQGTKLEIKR
modifications: vc-MMAE (mc-vc-PAB-MMAE) linker-payload conjugated after TCEP reduction, DAR 3.4 for the whole antibody; sites not stated
A431 cell killing IC50 [3]: 0.14 nM | HuCC-T1 cell killing IC50 [3]: 0.14 nM

B8: Humanized antibody FS002-B27 (antibody, human IgG1, kappa, V domains shown)
VH: QVQLVQSGAEVKKPGSSVKVSCKASGGTFSSYAISWVRQAPGQGLEWMGRIIPILGIANYAQKFQGRVTITADKSTSTAYMELSSLRSEDTAVYYCARAEGSSWYYFDYWGQGTLVTVSS
VL: NIQLTQSPSSVSASVGDRVTITCRASQGFSRWLAWYQQKPGKAPKLLIYGASSLQSGVPSRFSGSGSGTDFTLTISSLQPEDFATYYCQQANSFPLTFGGGTKLEIKR
notes: as for B1
EC50 [1]: 0.571 nM | EC50 [2]: 2.75 nM
